According to a protein production outcome set (Wang et al. 2014):

Test: label from the status in PepcDB records

**Q.** With “MSELAASLLSRVILPRPGEPLDVRKLYLEESTTNARRAHAPTRTSLQIGAESEVSFATYFNAFPASYWRRWTTCKSVVLRVQVTGAGRVDVYRTKATGARIFVEGHDFTGTEDQPAAVETEVVLQPFEDGGWVWFDITTDTAVTLHSGGWYATSPAPGTANIAVGIPTFNRPADCVNALRELTADPLVDQVIGAVIVPDQGERKVRDHPDFPAAAARLGSRLSIHDQPNLGGSGGYSRVMYEALKNTDCQQILFMDDDIRLEPDSILRVLAMHRFAKAPMLVGGQMLNLQEPSHLHIMGEVVDRSIFMWTAAPHAEYDHDFAEYPLNDNNSRSKLLHRRIDVDYNGWWTCMIPRQVAEELGQPLPLFIKWDDADYGLRAAEHGYPTVTLPGAAIWHMAWSDKDDAIDWQAYFHLRNRLVVAAMHWDGPKAQVIGLVRSHLKATLKHLACLEYSTVAIQNKAIDDFLAGPEHIFSILESALPQVHRIRKSYPDAVVLPAASELPPPLHKNKAMKPPVNPLVIGYRLARGIMHNLTAANPQHHRRPEFNVPTQDARWFLLCTVDGATVTTADGCGVVYRQRDRAKMFALLWQSLRRQRQLLKRFEEMRRIYRDALPTLSSKQKWETALLPAANQEPEHG” as the sequence, how does the protein production read?
**A.** failed

**Q.** For “MSELILHHYPTSLFAEKARLMLGFKGVNWRSVTIPSIMPKPDLTALTGGYRKTPVLQIGADIYCDTALMARRLEQEKASPAFYPQGQEFAVAGLAAWADSVLFLHAVSLVFQPESMAVRFAKVPPDAAKAFIADRSMLFNGGTASRPPVEQVKHQWPTFMSRLESQLSHGGDFLFGAPSIADFSVAHTLWFLKQTPVTAPFVDDYPSVSVWLDRVLGFGHGSLSDLSSAAAIEIASNATPAPLPDETFIDPNGFKAGDKVAIAAVDYGVEAVEGELMFTGREELILRREDNRAGVVHVHFPRLGFRVEKR”, which protein production is on record?
**A.** not failed

**Q.** Which protein production does the source give for “MSELSTEAPAQSAKPTIYFDGVSSRRRQVTLTLGDALEIVEEGATPVRWAYADIRRADSPAGILRLASTFAPPLARLEIRDTALAADVSVRCMRLDEHQTTRRGIAKIVGWSVAAAVSIVCVVLFGVPLAADRLAPLVPKPIERRIGDASEVQVKTIFGGRTCEDPAGKAAFTKLVNRLRDAAGLDDDSMTAGVLPTSVPNAFALPGGKVFLLQGLLDRAESPDELAGILAHELGHLKHHDNMRGLIYNGGTSFLIGLLFGDVTGSSAVIFASRSVVEASYSREAETGADTFAIDIMHALGRSPRPSAELMFRITGKEGGSGFTILSSHPLTEDRLARMTKEDRPVSGPPLLTDAEWRALKGICGSGKI” here?
**A.** failed

**Q.** Which protein production does the source give for “MSELVRKLSGTAPNPAFPRGAVDTQMHMYLPGYPALPGGPGLPPGALPGPEDYRRLMQWLGIDRVIITQGNAHQRDNGNTLACVAEMGEAAHAVVIIDATTTEKDMEKLTAAGTVGARIMDLPGGAVNLSELDAVDERAHAADWMVAVQFDGNGLLDHLPRLQKIRSRWVFDHHGKFFKGIRTDGPEMAALLKLIDRGNLWFKFAGVYESSRKSWPYADVAAFSRVIAAHAPERIVWGTNWPHNSVRETAAYPDDARLAELTLGWLPDEAARHRALVENPEALFKLSPVKAT” here?
**A.** failed

**Q.** With “MSENLAITIATIVVKLFAIIDPFSVLPFLLAIYEEANRDSQEKVSWNYMINKITIAILILLTLFSLIGRPLLDFLGLSAQALQIAGGVLLVYLGIDTMGGFQQLRFIRSLREAIVTPIATPLLVGPGTMTALISLSVDYNPLELVISSGIVTLLVYLSLLSGPYLVKILGQTGTVAAGRFTAIIIAAFGVQLILSGISQLNFK” as the sequence, how does the protein production read?
**A.** failed

**Q.** Which protein production does the source give for “MSEPLHALARQLEQAIRASEPFQQLKRAYEDVRRDETAYRMFANVRDIQLRLHEKQMRGAAILPDEIEQAQKAMALAQQNEKLARLMALEQQMSITIAEVQQIAMKPLEELHRSFMEGR” here?
**A.** not failed

**Q.** With “MSEPLLHLTERSLWDAARDRGTYEMATRGRTLQEEGFIHCSLRHQLPGVAALLYGSRAGSDELVVLVVDAERLAAPVRYEAVGPGGEEFPHVYGPIPVSAVVDVEVWTGGEAASALEHHHHHH” as the sequence, how does the protein production read?
**A.** not failed

**Q.** Which protein production does the source give for “MSEPVIKSLLDTDMYKITMHAAVFTNFPDVTVTYKYTNRSSQLTFNKEAINWLKEQFSYLGNLRFTEEEIEYLKQEIPYLPSAYIKYISSSNYKLHPEEQISFTSEEIEGKPTHYKLKILVSGSWKDTILYEIPLLSLISEAYFKFVDIDWDYENQLEQAEKKAETLFDNGIRFSEFGTRRRRSLKAQDLIMQGIMKAVNGNPDRNKSLLLGTSNILFAKKYGVKPIGTVAHEWVMGVASISEDYLHANKNAMDCWINTFGAKNAGLALTDTFGTDDFLKSFRPPYSDAYVGVRQDSGDPVEYTKKISHHYHDVLKLPKFSKIICYSDSLNVEKAITYSHAAKENGMLATFGIGTNFTNDFRKKSEPQVKSEPLNIVIKLLEVNGNHAIKISDNLGKNMGDPATVKRVKEELGYTERSWSGDNEAHRWTZ” here?
**A.** not failed

**Q.** Which protein production does the source give for “MSEQQHVRADGTVTFLPHRLNRHPVVVRGLTADELWICCGLSGAAGLLVGAPLSWVFRTIAIAPTFVVLGVALGVFIGGGILRRLKRGRPDTWLYRQLQWRIATGHPLMAGWVGGHVLISRSGFWSTRRSMR” here?
**A.** failed

**Q.** With “MSERRDAILKASATAIAQRGIRGLRVNDVAEVAGVSPGLLYYHFKDRIGLLEAALNYINDRARAYRSEGEGSGDSARDRLTRSLLGEIQDRPEVVENSLAWNELRASAVYEEALRDPLARTTAAWVSEIADAIVQAQATGEISRSLDPQPTAVTMTALVEGLSGRWLCKEISTEDARSHLLGAIDVVMSEPTHHTADTPVTPTPKEYR” as the sequence, how does the protein production read?
**A.** not failed

**Q.** With “MSERVSEEPGLDKGDRAEECELDDPELKAIRMRVREMEEEAERLKGLSGQDKSIGVSTRPCMQTTHSKMTAGAYTEGPPQPLSAEEKKEIDKRSVYVGNVDYGSTAQDLEAHFSSCGSINRITILCDKFSGHPKGYAYIEFAERNSVDAAVAMDETVFRGRTIKVLPKRTNMPGISSTDRGGFRGRPRGNRGNYQRGQRPRGRPFRGRGRPGPLNNPY” as the sequence, how does the protein production read?
**A.** not failed

**Q.** For “MSESNRQRATGLVQAYYEAFNRGDWDAMLAFLAEDVAHDLNQGPREIGRAAFASFLQRMNDSYREQLRDIVVTANDEGTRVGAEYVVHGVYHTTDEGLPDANGQTYVLPGGAFFDVRDGQITRVTNYYNLQEWIAQVSR”, which protein production is on record?
**A.** not failed

**Q.** Which protein production does the source give for “MSESTAPSDTVLLRGGEVHSPADPFATAMVVERGQVAWVGSEGAADAFSAGVDEVVDLEGALVTPAFTDAHVHTTSTGLALTGLDLSGAPSLEAALALVRDFAAARPDDRVLLGHGWDTARWPGGRPPTRAELDEAADGRPLYLSRIDVHSAVVSTALLDLVPGITGRAGYLDGPLTRDAHHAVRGAALGAVSPAQRTEAQRAALAHAASLGIGSVHECAGPEISSEDDFTGLLRLAAEETGPRVVGYWAEWGEEGIDRARALGAVGAAGDLFVDGALGSHTACLHQPYSDAGHTGTAYLDDDAVAAHVIACTEAGLQAGFHAIGDAAVTSVVEGVRAAAEKVGLARVRAARHRVEHAEMLTPETIAAFAELGLTASVQPAFDALWGGADGMYAQRLGAERARTLNPFAALLRAGVPLAFGSDSPVTPLDPWGTVRAAAFHRTPEHRVSVRAAFTAHTRGGWRAIGRDDAGVLVPGAPADYAVWRTEELVVQAPDDRVARWSTDPRSGTPGLPDLTPGGDLPVCLRTVVGGRTVFVRPNE” here?
**A.** failed

**Q.** With “MSETDTAWIETALTSARPQAVGALLRYFRDLDTAEEAFQNACLRALKTWPQNGPPRDPAAWLIMVGRNVAIDEVRRARKQQPLPEDDQAISDLDDAEGALAERLDGSHYRDDILRLMFICCHPQLPATQQIALALRIVSGLTVKQIARAFLVSEAAMEQRITRAKAKVAEAGTPFETPGPIERSERLAGVAAMIYLIFNEGYSASGDTAEIRKPLCEEAIRLARLLLRLFQSEPEIMGLAALLLLQHARSAARFADDGSLILLEDQDRSLWNGSMIAEGLALIDKAMRHRRSGPYQIQAAIAALHARAATPEETDWAQIDLLYGALELAQPSPVVTLNRAVAVSKVRGPQAALDLIEPLAPKLGNYFHFHGVRGAFLMQLGRNDEARIAFDRAIALANTSAEAAHIRMHIDRLIRDSQPKSSNGSARQGAKAK” as the sequence, how does the protein production read?
**A.** failed

**Q.** For “MSEVHTTIIDLDAGAVFSGTPSGRIIKGFDKPCAHTPNIDPDYVFHECSRDIVVWLMDSSDPLYVFGPTGSGKTSAIKQLAARLNYPVFDVTGHGRLEFPDLVGHLSVRDGSMEFQYGPLALAMRHGGILLLNEIDLLEPATATGFNGILDGEPLCIPENGGEIITPHPMFRFAATANTNGGSDDTGLYQGTLRQNLAFLDRFWLCEMPYPAPEAEKALLERRAPMLPDDIRTRMVDYANEVRRLFMGESGTTYGHSIEVTFSTRTLLRWADLTVRFQPLARQGIQPLTYALDRALGFKASKDTRTTLHELAQRLFPQHAATGE”, which protein production is on record?
**A.** failed

**Q.** Which protein production does the source give for “MSEVTKNSLEKILPQLKCHFTWNLFKEDSVSRDLEDRVCNQIEFLNTEFKATMYNLLAYIKHLDGNNEAALECLRQAEELIQQEHADQAEIRSLVTWGNYAWVYYHLGRLSDAQIYVDKVKQTCKKFSNPYSIEYSELDCEEGWTQLKCGRNERAKVCFEKALEEKPNNPEFSSGLAIAMYHLDNHPEKQFSTDVLKQAIELSPDNQYVKVLLGLKLQKMNKEAEGEQFVEEALEKSPCQTDVLRSAAKFYRRKGDLDKAIELFQRVLESTPNNGYLYHQIGCCYKAKVRQMQNTGESEASGNKEMIEALKQYAMDYSNKALEKGLNPLNAYSDLAEFLETECYQTPFNKEVPDAEKQQSHQRYCNLQKYNGKSEDTAVQHGLEGLSISKKSTDKEEIKDQPQNVSENLLPQNAPNYWYLQGLIHKQNGDLLQAAKCYEKELGRLLRDAPSGIGSIFLSASELEDGSEEMGQGAVSSSPRELLSNSEQLN” here?
**A.** failed

**Q.** With “MSEVVKKFMYLNRKAPYGTIYAWEALEVVLIGAAFDQDVCVLFLDDGVYQLTRGQDTKGIGMKNFSPTYRTLGDYEVRRIYVDRDSLEARGLTQDDLVEIAFEDMETEEEFDNIVEVIDSARVSELMNESDAVFSF” as the sequence, how does the protein production read?
**A.** not failed

**Q.** With “MSEYLPIIIPSVFLVIPSIAILYMEKRFSTAVYTAVIGLLISFLSFTLFFSLGYYNYGVFNNALYLTKFGYFIAISSLIATILVVLGSSNDLKNWETGTSFLSLSLLTNIGVIYLAFAYNVLVIFASWAIASAATYVIAMLKKDYQSVEAGVKYLVMGLLSSSLMIIGLAFFVTAGNTLYLDPVISYQPLIVLSIIFFSIAFLFKIGAFPFQGWLPEVYSLADRFSVGFVSSVGKIVGIEPLLVILYYLIQDNSSSQVIYLTVVILFSIISVLSLIFGNISAFSRKDFAQILAYSSITQVGFMVIGIAMLPVNMNIAISGLMVYLLSYSIAQAGLFVSLSHVEKITGSSYFESFRGMSSGDRVLAFSMTILLLSLLGIPPILGFWAKLFVLESSFSQPWLTIIGFINSAISAGYYIPPIREIFREGQFKKVDSPERDSVIVAAVLSIALGIISPLIFGVLV” as the sequence, how does the protein production read?
**A.** failed

**Q.** With “MSEYRTVSAAAMLGTYEDFLELFEKGYEDKESVLKSNILYDVLRNNNDEARYKISMFLINKGADIKSRTKEGTTLFFPLFQGGGNDITGTTELCKIFLEKGADITALYKPYKIVVFKNIFNYFVDENEMIPLYKLIFSQSGLQLLIKDKWGLTALEFVKRCQKPIALKMMEDYIKKYNLKENS” as the sequence, how does the protein production read?
**A.** not failed
